Molecular target: LgBiT-Npc1l1 expressed on OVA-Panc-02 cells (UniProt Q6T3U4 21-1333)
Assay: split reporter

Chain of LgBiT-Npc1l1 expressed on OVA-Panc-02 cells (Q6T3U4 21-1333): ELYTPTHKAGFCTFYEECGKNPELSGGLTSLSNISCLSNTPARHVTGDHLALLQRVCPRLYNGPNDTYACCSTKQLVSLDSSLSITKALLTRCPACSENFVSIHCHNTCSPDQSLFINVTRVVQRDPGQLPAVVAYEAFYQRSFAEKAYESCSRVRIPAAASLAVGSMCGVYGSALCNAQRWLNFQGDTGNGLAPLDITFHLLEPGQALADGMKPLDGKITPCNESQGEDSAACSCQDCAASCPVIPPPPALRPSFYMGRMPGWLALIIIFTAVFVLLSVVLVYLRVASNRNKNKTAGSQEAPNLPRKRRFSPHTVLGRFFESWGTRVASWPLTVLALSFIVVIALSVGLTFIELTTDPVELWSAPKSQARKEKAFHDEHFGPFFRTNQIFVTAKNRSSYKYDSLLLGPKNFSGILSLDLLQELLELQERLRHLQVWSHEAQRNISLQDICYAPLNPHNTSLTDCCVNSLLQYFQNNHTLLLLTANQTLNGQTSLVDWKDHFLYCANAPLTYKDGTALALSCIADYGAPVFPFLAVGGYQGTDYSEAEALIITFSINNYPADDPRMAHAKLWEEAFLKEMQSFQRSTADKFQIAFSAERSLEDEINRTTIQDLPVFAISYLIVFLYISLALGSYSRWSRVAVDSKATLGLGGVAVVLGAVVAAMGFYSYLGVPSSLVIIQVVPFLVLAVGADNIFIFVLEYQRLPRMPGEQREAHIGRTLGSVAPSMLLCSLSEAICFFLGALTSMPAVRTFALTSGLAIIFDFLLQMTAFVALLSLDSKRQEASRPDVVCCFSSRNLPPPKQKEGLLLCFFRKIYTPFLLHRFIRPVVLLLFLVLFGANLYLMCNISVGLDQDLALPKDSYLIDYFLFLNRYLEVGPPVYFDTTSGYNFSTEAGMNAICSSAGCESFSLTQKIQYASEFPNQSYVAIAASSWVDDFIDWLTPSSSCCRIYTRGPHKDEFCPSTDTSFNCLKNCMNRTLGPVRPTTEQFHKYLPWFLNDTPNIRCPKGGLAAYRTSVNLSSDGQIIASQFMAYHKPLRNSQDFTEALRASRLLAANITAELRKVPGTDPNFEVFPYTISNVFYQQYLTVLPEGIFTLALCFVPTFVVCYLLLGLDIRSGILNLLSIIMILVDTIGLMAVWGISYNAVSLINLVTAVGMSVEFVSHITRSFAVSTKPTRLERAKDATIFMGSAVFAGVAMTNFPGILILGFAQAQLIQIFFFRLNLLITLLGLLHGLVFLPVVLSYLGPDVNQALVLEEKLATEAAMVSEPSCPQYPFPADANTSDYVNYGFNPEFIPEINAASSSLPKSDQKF

B1: SmBiT-Itgal (receptor)
chain: YNLDTRPTQSFLAQAGRHFGYQVLQIEDGVVVGAPGEGDNTGGLYHCRTSSEFCQPVSLHGSNHTSKYLGMTLATDAAKGSLLACDPGLSRTCDQNTYLSGLCYLFPQSLEGPMLQNRPAYQECMKGKVDLVFLFDGSQSLDRKDFEKILEFMKDVMRKLSNTSYQFAAVQFSTDCRTEFTFLDYVKQNKNPDVLLGSVQPMFLLTNTFRAINYVVAHVFKEESGARPDATKVLVIITDGEASDKGNISAAHDITRYIIGIGKHFVSVQKQKTLHIFASEPVEEFVKILDTFEKLKDLFTDLQRRIYAIEGTNRQDLTSFNMELSSSGISADLSKGHAVVGAVGAKDWAGGFLDLREDLQGATFVGQEPLTSDVRGGYLGYTVAWMTSRSSRPLLAAGAPRYQHVGQVLLFQAPEAGGRWNQTQKIEGTQIGSYFGGELCSVDLDQDGEAELLLIGAPLFFGEQRGGRVFTYQRRQSLFEMVSELQGDPGYPLGRFGAAITALTDINGDRLTDVAVGAPLEEQGAVYIFNGKPGGLSPQPSQRIQGAQVFPGIRWFGRSIHGVKDLGGDRLADVVVGAEGRVVVLSSRPVVDVVTELSFSPEEIPVHEVECSYSAREEQKHGVKLKACFRIKPLTPQFQGRLLANLSYTLQLDGHRMRSRGLFPDGSHELSGNTSITPDKSCLDFHFHFPICIQDLISPINVSLNFSLLEEEGTPRDQKVGRAMQPILRPSIHTVTKEIPFEKNCGEDKKCEANLTLSSPARSGPLRLMSSASLAVEWTLSNSGEDAYWVRLDLDFPRGLSFRKVEMLQPHSRMPVSCEELTEGSSLLTKTLKCNVSSPIFKAGQEVSLQVMFNTLLNSSWEDFVELNGTVHCENENSSLQEDNSAATHIPVLYPVNILTKEQENSTLYISFTPKGPKTQQVQHVYQVRIQPSAYDHNMPTLEALVGVPWPHSEDPITYTWSVQTDPLVTCHSEDLKRPSSEAEQPCLPGVQFRCPIVFRREILIQVTGTVELSKEIKASSTLSLCSSLSVSFNSSKHFHLYGSKASEAQVLVKVDLIHEKEMLHVYVLSGIGGLVLLFLIFLALYKVGFFKRNLKEKMEADGGVPNGSPPEDTDPLAVPGEETKDMGCLEPLRESDKD
- fold luminescence over the NanoBiT negative controls: 1000 fold

Source: paper PMC11910884 (The Innovation, 2025)
